The text below walks through data of the nanobody polyreactivity screen of Harvey et al. (2022).

The nature of this data set: yeast display, Sf9 membrane polyspecificity reagent, FACS + sequencing; frameworks hold sequencing errors. The method in brief:
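A nanobody's polyreactivity label depends on the gate it was sorted from. Yeast display cells were stained with 10% biotinylated, detergent-solubilized Sf9 membrane reagent for 1 hour at 4 °C, enriched on streptavidin microbeads and sorted by FACS. The low and high (top ~1%) gates were set on anti-HA fluorescence for expression and streptavidin fluorescence for reagent binding.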
Take “QVQLVESGGGLVQAGGSLRLSCAASGRTFYRYAMGWYRQAPGKEREFVARITTSGGSTYYADSVKGRFTISRDNAKNTVYLEMNSLKPEDTAVYYCAASAPYIYYWGQGTQVTVSS”: the “polyreactivity (PSR sort gate)” value is “high polyreactivity”.
On to “QVQLVESGGGLVQAGGSLRLSCAASGRTFYRYAMGWYRQAPGKEREFVARITTSGGSTYYADSVKGRFTISRDNAKNTVYLQMNSLKPDDTAVYYCNASGVTYAFLRFDYWGQGTQVTVSS”, for which the “polyreactivity (PSR sort gate)” value is “high polyreactivity”.
As for “QVQLVESGGGLVQAGGSLRLSCAASGRTFYRYAMGWYRQAPGKERELFAAISGSGTSTSYADSVKGRFTISRDNAKNTVYLQLNSLKPDDTAVYYCAATYYVYYYSRYYYWGQGTQVTVSS”, the “polyreactivity (PSR sort gate)” value is recorded as “high polyreactivity”.
Turning to “QVQLVESGGGLVQAGGSLRLSCAASGRTFYRYAMGWYRQAPGKERELVAAISGSGTSTSYADSVKGRFTISRDNAKNTVYLQMNSLKPEDTAVYYCAATYYVYYYSRYYYWGQGTQVTVSS”, the “polyreactivity (PSR sort gate)” value is “high polyreactivity”.
For the sequence “QVQLVESGGGLVQAGGSLRLSCAASGRTFYRYAMGWYRQAPGKERELVASITRDGRTNYADSVKGRFTISRDNAKNTVYLQMNSLKPEDTAVYYCNAKHKITHSSSDYWGQGTQVTVSS”, the “polyreactivity (PSR sort gate)” value was “high polyreactivity”.
Take “QVQLVESGGGLVQAGGSLRLSCAASGRTFYRYAMGWYRQAPGKERELVATISRSGGSTYYADSVKGRFTISRDNAKNTVYLQMNSLKPEDTAVFYCNAEGYPWGFYTYDYWGQGTQVTVSS”: the “polyreactivity (PSR sort gate)” value was “low polyreactivity”.
Turning to “QVQLVESGGGLVQAGGSLRLSCAASGRTFYRYAMGWYRQAPGKERELVAVITSGSRTKYADSVKGRFTISRDNAKNTVYLQMNSLKPEDTAVYYCNAYGVRYRQAFVRYNYWGQGTQVTVSS”, the “polyreactivity (PSR sort gate)” value is on record as “high polyreactivity”.
Regarding “QVQLVESGGGLVQAGGSLRLSCAASGRTFYRYAMGWYRQAPGKESELVAAISSSGGSTYYADSVKGRFTISRDNAKNTVYFQMNSLKPEDTAVYDCADQYFLFTTPYRYAPRMGYWGQGTQVTLSS”, the “polyreactivity (PSR sort gate)” value is “high polyreactivity”.
As to “QVQLVESGGGLVQAGGSLRLSCAASGRTFYRYGMGWYRQAPGKEREFVAAITRSGDSTYADSVKGRFTISRDNAKITVYLQMNSLKPEDTAVYYCAKVFLRQYAYRYYYWGQGTQVTVSS”, the “polyreactivity (PSR sort gate)” value is “high polyreactivity”.
In the case of “QVQLVESGGGLVQAGGSLRLSCAASGRTFYRYVMGWYRQATGKERELDADISRRGGRTYYADSVKGRFTISRDNAKNTVYLQMNSLKPEDTAVYYCAAESKYATSSPRRDYWGQGTQVTVSS”, the “polyreactivity (PSR sort gate)” value was “high polyreactivity”.
Consider “QVQLVESGGGLVQAGGSLRLSCAASGRTFYSNAMGWYRQAAGKERELVAAISYNDGSTYYADSVKGRFTITRDNAKNTVYLQMNSLKPEDTAVYACNADVGAWAWYTRYDYWGQGTQVTVSS”, for which the “polyreactivity (PSR sort gate)” value is listed as “low polyreactivity”.
For the sequence “QVQLVESGGGLVQAGGSLRLSCAASGRTFYSNAMGWYRQAPGKERELVAAIRQSGGSTYYADSVKGRFTISRDNEKNSVYLQMNSLTPEDTAVYYCATGRHDSYKGSLYYYWGQGTQVTVSS”, the “polyreactivity (PSR sort gate)” value is listed as “high polyreactivity”.
Turning to “QVQLVESGGGLVQAGGSLRLSCAASGRTFYSNAMGWYRQAPGKERELVAAISRSGGTTYYADSVKGRFTISRDNAKNTVYLQMNSLKPEDTAVYYCNTLRYGTTGKYDYWGQGTQVTVSS”, the “polyreactivity (PSR sort gate)” value is recorded as “high polyreactivity”.
As for “QVQLVESGGGLVQAGGSLRLSCAASGRTFYSYAMGWYRQAPGKERELVAAISASGGRTYYADSVKGRFTISRDNAKNTVYLQMNSLKPEDTAVYYCAAYPWYRMWGQGTQVTVSS”, the “polyreactivity (PSR sort gate)” value is on record as “high polyreactivity”.
“QVQLVESGGGLVQAGGSLRLSCAASGRTFYSYAMGWYRQAPGKERELVAAISRGGNTYYADSVKGRFTISRDNAKNTVSLQMNSLNPEDTAVYYCAVVRVTYYASIYHRGYDYWGQGTQVTVSS”: the “polyreactivity (PSR sort gate)” value is “low polyreactivity”.
For the sequence “QVQLVESGGGLVQAGGSLRLSCAASGRTFYSYAMGWYRQAPGTEREFVAAINWSGTSTYADSVKGRFTISRDNAKNTVYLQMNSLKPEDTAVYYCAKTYRTLVRYWGQPFGYWGQGTQVTVSS”, the “polyreactivity (PSR sort gate)” value is given as “high polyreactivity”.
Take “QVQLVESGGGLVQAGGSLRLSCAASGRTFYSYTMGWYRPAPGKERELVAAINRGGSTYYADSVKGRFTISRDNAKNTVYLQMNSLKPEDTAVYYCAVGYAHSSNRRYYYKKTHGYWGQGTQVTVSS”: the “polyreactivity (PSR sort gate)” value was “low polyreactivity”.
As to “QVQLVESGGGLVQAGGSLRLSCAASGRTFYSYVMGWYRQAPGKERELVAAISSTGGTYADSVKGRFTISRDNAKNTVYLQMNSLKPEDTAVYYCAARVHFPYPDYAWITVLYDYWGQGTQVTVSS”, the “polyreactivity (PSR sort gate)” value is on record as “low polyreactivity”.
Consider “QVQLVESGGGLVQAGGSLRLSCAASGRTFYWNAMGWSIQAPGKERELVASISWSGGRTYYADSVKGRFTISRDNAKNTVYLQMISLKPEDTAVYYCARRYSGTPSTFYYWGQGTLVTVSS”, for which the “polyreactivity (PSR sort gate)” value is given as “high polyreactivity”.
As for “QVQLVESGGGLVQAGGSLRLSCAASGRTFYWNAMGWYRQAPGKDRDLVASISWSGGRTYYADSVKGRFTISRDNAKNTVYLQMNSLKPEDTAVYYCARRYSGTPSTFYYWGQGTQVNVSS”, the “polyreactivity (PSR sort gate)” value is recorded as “high polyreactivity”.
For the sequence “QVQLVESGGGLVQAGGSLRLSCAASGRTFYYAMGWYRQAPGKERELVAAISKNGGRTYYADSVKGRFTISRDNAKNTVYLQMNSLKPEDTAVYYCAAAFQRPHSYLYYYWGQGTQVTVSS”, the “polyreactivity (PSR sort gate)” value is listed as “high polyreactivity”.
Consider “QVQLVESGGGLVQAGGSLRLSCAASGRTFYYAMGWYRQAPVKERYADSVKGRFTISRDNAKNTVYLQMNSLKPEDTAVYYCAAKVPEPPSLDESDYWGQGTQVTVSS”, for which the “polyreactivity (PSR sort gate)” value is given as “low polyreactivity”.
The value for “QVQLVESGGGLVQAGGSLRLSCAASGRTFYYNAMGWYRQAPGKEREFVAAISYGGTTTYYADSVKGRFTISRDNAKNTVYLQMNSLKPEDTAVYYCAAGYTWRQSWYPFDYWGQGSQVTVSS” was “high polyreactivity”; that for “QVQLVESGGGLVQAGGSLRLSCAASGRTFYYNAMGWYRQAPGKERELVARISTIGGNTFYADSVKGRFTISRDNAKNTVYLQMNSLKPEDTAVYYCATTGGPSWRKYDYWGQGTQVTVSS” was “high polyreactivity”.
Consider “QVQLVESGGGLVQAGGSLRLSCAASGRTFYYNAMGWYRQAPGKERELVARITSSGGSTYYADSVKGRFTISRDNAKNTVYLQMNSLKPEDTAVYYCAAGRSRYLWFGRDFDYWGQGTQVTVSS”, for which the “polyreactivity (PSR sort gate)” value was “low polyreactivity”.
As for “QVQLVESGGGLVQAGGSLRLSCAASGRTFYYNTMGRNIPAPGKERELVATISRIGGSTYYADSVKGRFTISRDNAKNTVYLQMNSLKPEDTAVYYCAKGRSLNGRPPVVYWQLFYYWGQGTEVTVSS”, the “polyreactivity (PSR sort gate)” value is “high polyreactivity”.
On to “QVQLVESGGGLVQAGGSLRLSCAASGRTFYYNVMGWYRQAPGKERELVAAISTGVSTNYADSVKGRFTISRDNAKNTVYLQMNSLKPEDTAVYYCNARSYRWYRPVYRYDYWGQGTQVNVSS”, for which the “polyreactivity (PSR sort gate)” value was “high polyreactivity”.
As for “QVQLVESGGGLVQAGGSLRLSCAASGRTFYYYAMGSYRQAPGKEREFVAAITTRGGSTYYADSVKGRFTISRDNAKNTVYLQMNSLKPEDTAVYYCAARSYYQGGYYYWGQGTQVTVSS”, the “polyreactivity (PSR sort gate)” value is on record as “high polyreactivity”.
As for “QVQLVESGGGLVQAGGSLRLSCAASGRTFYYYAMGWYRPAPGKERELVAAITSRGGSTYYADSVTGRFTISRDNAKNTVYLQMNSLKPEDTAVYYCAAEYWSTYWQSELDYWGQGTQVTVSS”, the “polyreactivity (PSR sort gate)” value is “high polyreactivity”.
Regarding “QVQLVESGGGLVQAGGSLRLSCAASGRTFYYYAMGWYRQAHGKERELVAAISTNGGSTYYADSVKGRFTISRDNAKNTVYLQMNSLKPEDTAVYYCNTYAKPHRSGGGLGGHYYWGQGTQVTLSS”, the “polyreactivity (PSR sort gate)” value is recorded as “low polyreactivity”.
Regarding “QVQLVESGGGLVQAGGSLRLSCAASGRTFYYYAMGWYRQAPGKEREFVASISYSGARTYYADSVKGRFTISRDNAKNTVYLQMNSLKPEETAVYYCAAGYPLGGDYWGQGTQVTVSS”, the “polyreactivity (PSR sort gate)” value is recorded as “high polyreactivity”.
In the case of “QVQLVESGGGLVQAGGSLRLSCAASGRTFYYYAMGWYRQAPGKERELVAGIDFSSGSTYYADSVKGRFTISRDNAKNTVYLQMNSLKPEDTAVYYCAAKWHVRGRGARYRYDYDYWGQGTQVTVSS”, the “polyreactivity (PSR sort gate)” value is listed as “low polyreactivity”.
On to “QVQLVESGGGLVQAGGSLRLSCAASGRTFYYYAMGWYRQAPGKERELVARIRSGGSTNYADSVKGRFTISRDNAKNTVYLQMNSLKPEDTAVYYCNALGAKGYVKGFDYWGQGTQVTVSS”, for which the “polyreactivity (PSR sort gate)” value is listed as “low polyreactivity”.
As to “QVQLVESGGGLVQAGGSLRLSCAASGRTFYYYAMGWYRQAPGKERELVATITKSSGSTSYADSVKGRFTISRDNAKNTVYLQMNSLKPEDTAVYYCAKVFRSGGVYRYDYWGQGTQVTVSS”, the “polyreactivity (PSR sort gate)” value is given as “high polyreactivity”.
As for “QVQLVESGGGLVQAGGSLRLSCAASGRTFYYYAMGWYRQAPGKERELVAVIRFSDGSTYYADSVKGRFTISRDNAKNTVYLQMNSLKPEDTAVYYCAAKGPRRWGSGFDYWGQGTQVTVSS”, the “polyreactivity (PSR sort gate)” value is on record as “low polyreactivity”.
In the case of “QVQLVESGGGLVQAGGSLRLSCAASGRTFYYYGMGWYRQAPGKERELVASITNGGNTNYADSVKGRFTISRDNAKNTVYLQMNSLKPEDTAVYYCAKDVPYWRPVVRYDYWGQGTQVTVSS”, the “polyreactivity (PSR sort gate)” value is recorded as “low polyreactivity”.
On to “QVQLVESGGGLVQAGGSLRLSCAASGRTFYYYGMGWYRQAPGKERELVASITNGGNTNYADSVKGRFTISRDNAKYTVYLQMNSLKPEDTAVYYCAKDVPYWRPVVRYDYWGQGTQVTVSS”, for which the “polyreactivity (PSR sort gate)” value was “low polyreactivity”.
Take “QVQLVESGGGLVQAGGSLRLSCAASGRTHIYAMGWYRQAPGKERELVAGISRSGTRTYYADSVKGRFTISRDNAKNTVYLQMNSLKPEDSAVYYCNAQAYYQGYDYWGQGTQVTVSS”: the “polyreactivity (PSR sort gate)” value is “high polyreactivity”.
As to “QVQLVESGGGLVQAGGSLRLSCAASGRTIAINAMGWYRQAPGKEREFVAAITSRSSRTYYADSVKGRFTISRDNAKNTVYLQMNSLKPEDTAVYYCARGSELGYYAWVYYWGQGTQVTVSS”, the “polyreactivity (PSR sort gate)” value was “high polyreactivity”.
Turning to “QVQLVESGGGLVQAGGSLRLSCAASGRTIGIYARGWYRQAPVKERELVADITIGGSTYYADSVKGRFTISRDNAKNTVFIQINSLKPEDTAVYYCAARNPGYTRTGRRYDSWGQGTQVTVSS”, the “polyreactivity (PSR sort gate)” value is given as “low polyreactivity”.
